The test concerns the target 抗Fasモノクローナル抗体HFE7A(マウス−マウスハイブリドーマHFE7A、FERM BP−5828が産生). Kind of test: 200 µg peptide pre-incubated with 0.25 µg HFE7A, then flow cytometry on WR19L12a cells; D355-364 control set to 100 % fluorescence.

In the case of KCRCKPNFFC [合成ペプチドP110], the HFE7AとWR19L12a細胞との結合の阻害(%) was 60 %.

Turning to EINCTRTQNT [合成ペプチドP100], the HFE7AとWR19L12a細胞との結合の阻害(%) is 50 %.

The values are drawn from patent JP2000169393A.
